± gives the uncertainty stated by the source.
B1: Histone-lysine N-methyltransferase 2A, residues 1148 to 1194; numbered along this chain, Q03164 (parent)
chain: KGRRSRRCGQCPGCQVPEDCGVCTNCLDKPKFGGRNIKKQCCKMRKC

Variants of: B1
Test: abundance fitness (aPCA) (normalised: wild type 0, dead -1); higher = more abundant; growth selection in yeast, the domain comes from the species named
Details: Homo sapiens

| Variant | abundance fitness |
| --- | --- |
| KGRRSRRCGQCPGCQVPEDCGVCTNCLDKPKFGGRNIKKQVCKMRKC [C41V] | 0.094 ± 0.089 |
| KGRRSRRCGQCPGCQVPEDCGVCTNCLDKPKFGGRNIKKQNCKMRKC [C41N] | 0.27 ± 0.17 |
| KGRRSRRCGQCPGCQVPEDCGVCTNCLDKPKFGGRNIKKQRCKMRKC [C41R] | -0.014 ± 0.083 |
| KGRRSRRCGQCPGCQVPEDCGVCTNCLDKPKFGGRNIKKQICKMRKC [C41I] | 0.048 ± 0.16 |
| KGRRSRRCGQCPGCQVPEDCGVCTNCLDKPKFGGRNIKKQKCKMRKC [C41K] | -0.123 ± 0.12 |
| KGRRSRRCGQCPGCQVPEDCGVCTNCLDKPKFGGRNIKKQHCKMRKC [C41H] | 0.098 ± 0.13 |
| KGRRSRRCGQCPGCQVPEDCGVCTNCLDKPKFGGRNIKKQYCKMRKC [C41Y] | -0.322 ± 0.13 |
| KGRRSRRCGQCPGCQVPEDCGVCTNCLDKPKFGGRNIKKQTCKMRKC [C41T] | -0.195 ± 0.12 |
| KGRRSRRCGQCPGCQVPEDCGVCTNCLDKPKFGGRNIKKQGCKMRKC [C41G] | 0.04 ± 0.082 |
| KGRRSRRCGQCPGCQVPEDCGVCTNCLDKPKFGGRNIKKQQCKMRKC [C41Q] | 0.119 ± 0.11 |
| KGRRSRRCGQCPGCQVPEDCGVCTNCLDKPKFGGRNIKKQFCKMRKC [C41F] | -0.095 ± 0.12 |
| KGRRSRRCGQCPGCQVPEDCGVCTNCLDKPKFGGRNIKKQPCKMRKC [C41P] | 0.028 ± 0.11 |
| KGRRSRRCGQCPGCQVPEDCGVCTNCLDKPKFGGRNIKKQLCKMRKC [C41L] | -0.241 ± 0.09 |
| KGRRSRRCGQCPGCQVPEDCGVCTNCLDKPKFGGRNIKKQACKMRKC [C41A] | -0.104 ± 0.095 |
| KGRRSRRCGQCPGCQVPEDCGVCTNCLDKPKFGGRNIKKQMCKMRKC [C41M] | 0.127 ± 0.098 |
| KGRRSRRCGQCPGCQVPEDCGVCTNCLDKPKFGGRNIKKQWCKMRKC [C41W] | -0.095 ± 0.1 |
| KGRRSRRCGQCPGCQVPEDCGVCTNCLDKPKFGGRNIKKQDCKMRKC [C41D] | 0.3 ± 0.16 |
| KGRRSRRCGQCPGCQVPEDCGVCTNCLDKPKFGGRNIKKQSCKMRKC [C41S] | -0.066 ± 0.09 |
| KGRRSRRCGQCPGCQVPEDCGVCTNCLDKPKFGGRNIKKQCWKMRKC [C42W] | -0.821 ± 0.15 |
| KGRRSRRCGQCPGCQVPEDCGVCTNCLDKPKFGGRNIKKQCEKMRKC [C42E] | -0.604 ± 0.15 |
| KGRRSRRCGQCPGCQVPEDCGVCTNCLDKPKFGGRNIKKQCFKMRKC [C42F] | -0.647 ± 0.11 |
| KGRRSRRCGQCPGCQVPEDCGVCTNCLDKPKFGGRNIKKQCAKMRKC [C42A] | -0.952 ± 0.14 |
| KGRRSRRCGQCPGCQVPEDCGVCTNCLDKPKFGGRNIKKQCPKMRKC [C42P] | -0.709 ± 0.14 |
| KGRRSRRCGQCPGCQVPEDCGVCTNCLDKPKFGGRNIKKQCHKMRKC [C42H] | -0.809 ± 0.18 |
| KGRRSRRCGQCPGCQVPEDCGVCTNCLDKPKFGGRNIKKQCDKMRKC [C42D] | -0.849 ± 0.21 |
| KGRRSRRCGQCPGCQVPEDCGVCTNCLDKPKFGGRNIKKQCNKMRKC [C42N] | -1 ± 0.18 |
| KGRRSRRCGQCPGCQVPEDCGVCTNCLDKPKFGGRNIKKQCTKMRKC [C42T] | -0.824 ± 0.14 |
| KGRRSRRCGQCPGCQVPEDCGVCTNCLDKPKFGGRNIKKQCYKMRKC [C42Y] | -0.792 ± 0.12 |

| Variant | abundance fitness |
| --- | --- |
| KGRRSRRCGQCPGCQVPEDCGVCTNCLDKPKFGGRNIKKQCIKMRKC [C42I] | -1 ± 0.18 |
| KGRRSRRCGQCPGCQVPEDCGVCTNCLDKPKFGGRNIKKQCGKMRKC [C42G] | -0.909 ± 0.098 |
| KGRRSRRCGQCPGCQVPEDCGVCTNCLDKPKFGGRNIKKQCLKMRKC [C42L] | -0.651 ± 0.097 |
| KGRRSRRCGQCPGCQVPEDCGVCTNCLDKPKFGGRNIKKQCRKMRKC [C42R] | -0.569 ± 0.091 |
| KGRRSRRCGQCPGCQVPEDCGVCTNCLDKPKFGGRNIKKQCQKMRKC [C42Q] | -0.955 ± 0.19 |
| KGRRSRRCGQCPGCQVPEDCGVCTNCLDKPKFGGRNIKKQCMKMRKC [C42M] | -1.01 ± 0.2 |
| KGRRSRRCGQCPGCQVPEDCGVCTNCLDKPKFGGRNIKKQCVKMRKC [C42V] | -0.813 ± 0.11 |
| KGRRSRRCGQCPGCQVPEDCGVCTNCLDKPKFGGRNIKVQCCKMRKC [K39V] | 0.063 ± 0.083 |
| KGRRSRRCGQCPGCQVPEDCGVCTNCLDKPKFGGRNIKHQCCKMRKC [K39H] | -0.11 ± 0.17 |
| KGRRSRRCGQCPGCQVPEDCGVCTNCLDKPKFGGRNIKRQCCKMRKC [K39R] | -0.185 ± 0.086 |
| KGRRSRRCGQCPGCQVPEDCGVCTNCLDKPKFGGRNIKPQCCKMRKC [K39P] | -0.06 ± 0.1 |
| KGRRSRRCGQCPGCQVPEDCGVCTNCLDKPKFGGRNIKEQCCKMRKC [K39E] | 0.156 ± 0.13 |
| KGRRSRRCGQCPGCQVPEDCGVCTNCLDKPKFGGRNIKDQCCKMRKC [K39D] | 0.101 ± 0.14 |
| KGRRSRRCGQCPGCQVPEDCGVCTNCLDKPKFGGRNIKWQCCKMRKC [K39W] | -0.416 ± 0.11 |
| KGRRSRRCGQCPGCQVPEDCGVCTNCLDKPKFGGRNIKAQCCKMRKC [K39A] | -0.074 ± 0.1 |
| KGRRSRRCGQCPGCQVPEDCGVCTNCLDKPKFGGRNIKNQCCKMRKC [K39N] | -0.35 ± 0.17 |
| KGRRSRRCGQCPGCQVPEDCGVCTNCLDKPKFGGRNIKSQCCKMRKC [K39S] | 0.007 ± 0.093 |
| KGRRSRRCGQCPGCQVPEDCGVCTNCLDKPKFGGRNIKIQCCKMRKC [K39I] | -0.161 ± 0.15 |
| KGRRSRRCGQCPGCQVPEDCGVCTNCLDKPKFGGRNIKYQCCKMRKC [K39Y] | -0.683 ± 0.21 |
| KGRRSRRCGQCPGCQVPEDCGVCTNCLDKPKFGGRNIKLQCCKMRKC [K39L] | -0.086 ± 0.091 |
| KGRRSRRCGQCPGCQVPEDCGVCTNCLDKPKFGGRNIKQQCCKMRKC [K39Q] | 0.042 ± 0.11 |
| KGRRSRRCGQCPGCQVPEDCGVCTNCLDKPKFGGRNIKTQCCKMRKC [K39T] | -0.187 ± 0.12 |
| KGRRSRRCGQCPGCQVPEDCGVCTNCLDKPKFGGRNIKCQCCKMRKC [K39C] | -0.2 ± 0.11 |
| KGRRSRRCGQCPGCQVPEDCGVCTNCLDKPKFGGRNIKMQCCKMRKC [K39M] | -0.124 ± 0.12 |
| KGRRSRRCGQCPGCQVPEDCGVCTNCLDKPKFGGRNIKGQCCKMRKC [K39G] | -0.004 ± 0.076 |
| KGRRSRRCGQCPGCQVPEDCGVCTNCLDKPKFGGRNSKKQCCKMRKC [I37S] | 0.037 ± 0.084 |
| KGRRSRRCGQCPGCQVPEDCGVCTNCLDKPKFGGRNKKKQCCKMRKC [I37K] | -0.166 ± 0.16 |

Source: the Human Domainome abundance scans (Beltran et al. 2025)
